# Test results as given in patent US20240043537A1.
# Key:
# CD3 on T-cells = CD3 on T-cells (UniProt P07766); assay: cell-based or functional assay
# [1] = biological target: CD3 (as used for the BIACORE kinetics of Table 11) (UniProt P07766); assay: SPR (BIACORE)
# CD3 (as used for the BIACORE kinetics of Table 11), sequence (P07766 23-126): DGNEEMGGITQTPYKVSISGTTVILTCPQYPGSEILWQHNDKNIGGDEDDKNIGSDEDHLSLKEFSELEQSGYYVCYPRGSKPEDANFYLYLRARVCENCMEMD
# CD3 on T-cells, sequence (P07766 23-207): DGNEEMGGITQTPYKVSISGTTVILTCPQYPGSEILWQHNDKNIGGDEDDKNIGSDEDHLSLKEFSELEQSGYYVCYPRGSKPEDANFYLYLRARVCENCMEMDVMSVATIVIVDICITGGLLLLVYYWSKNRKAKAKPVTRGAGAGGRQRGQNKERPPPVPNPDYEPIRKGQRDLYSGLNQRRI
"EC50 of cytolysis at 18 hours (CTL assay, Pan-T-cells and MOLM-13, E:T = 5:1) (CD3 on T-cells)","R: ratio of 18 hour EC50 to DART-A-WT (CTL assay, Pan-T-cells and MOLM-13, E:T = 5:1) (CD3 on T-cells)","R: ratio of 42 hour EC50 to DART-A-WT (CTL assay, Pan-T-cells and MOLM-13, E:T = 5:1) (CD3 on T-cells)",Kd [1],R (KD ratio to DART-A-WT) [1],R (ka ratio to DART-A-WT) [1],R (kd ratio to DART-A-WT) [1],koff [1],kon [1],"EC50 of cytolysis at 42 hours (CTL assay, Pan-T-cells and MOLM-13, E:T = 5:1) (CD3 on T-cells)",Binder,"max % CytoTox at 18 hours (CTL assay, Pan-T-cells and MOLM-13, E:T = 5:1) (CD3 on T-cells)","max % CytoTox at 42 hours (CTL assay, Pan-T-cells and MOLM-13, E:T = 5:1) (CD3 on T-cells)"
0.026 ng/mL,0.3,0,4.18 nM,0.5,4.9,2.5,0.0103 s⁻¹,2.45e+06 M⁻¹ s⁻¹,–,DART-A-M21 (bispecific antibody) chain 1: DFVMTQSPDSLAVSLGERVTMSCKSSQSLLNSGNQKNYLTWYQQKPGQPPKLLIYWASTRESGVPDRFSGSGSGTDFTLTISSLQAEDVAVYYCQNDYSYPYTFGQGTKLEIKGGGSGGGGEVQLVESGGGLVQPGGSLRLSCAASGFTFSTYAMNWVRQAPGKGLEWVGRIRSKYNNYATYYADSVKDRFTISRDDSKNSLYLQMNSLKTEDTAVYYCVRHKNFGNSYVSFFAYWGQGTLVTVSSGGCGGGKVAALKEKVAALKEKVAALKEKVAALKE chain 2: QAVVTQEPSLTVSPGGTVTLTCRSSTGAVTTSNYANWVQQKPGQAPRGLIGGTNKRAPWTPARFSGSLLGGKAALTITGAQAEDEADYYCALWYSNLWVFGGGTKLTVLGGGGSGGGGEVQLVQSGAELKKPGASVKVSCKASGYTFTDYYMKWVRQAPGQGLEWIGDIIPSNGATFYNQKFKGRVTITVDKSTSTAYMELSSLRSEDTAVYYCARSHLLRASWFAYWGQGTLVTVSSGGCGGGEVAALEKEVAALEKEVAALEKEVAALEK,36.5%,29.9%
0.426 ng/mL,5.4,33.7,43.3 nM,5.3,1.4,7.6,0.031 s⁻¹,717000 M⁻¹ s⁻¹,0.095 ng/mL,DART-A-M10 (bispecific antibody) chain 1: DFVMTQSPDSLAVSLGERVTMSCKSSQSLLNSGNQKNYLTWYQQKPGQPPKLLIYWASTRESGVPDRFSGSGSGTDFTLTISSLQAEDVAVYYCQNDYSYPYTFGQGTKLEIKGGGSGGGGEVQLVESGGGLVQPGGSLRLSCAASGFTFSTYAMNWVRQAPGKGLEWVGRIRSKYNNYATYYADSVKDRFTISRDDSKNSLYLQMNSLKTEDTAVYYCVRHGNIGNSYVSWFAYWGQGTLVTVSSGGCGGGKVAALKEKVAALKEKVAALKEKVAALKE chain 2: QAVVTQEPSLTVSPGGTVTLTCRSSTGAVTTSNYANWVQQKPGQAPRGLIGGTNKRAPWTPARFSGSLLGGKAALTITGAQAEDEADYYCALWYSNLWVFGGGTKLTVLGGGGSGGGGEVQLVQSGAELKKPGASVKVSCKASGYTFTDYYMKWVRQAPGQGLEWIGDIIPSNGATFYNQKFKGRVTITVDKSTSTAYMELSSLRSEDTAVYYCARSHLLRASWFAYWGQGTLVTVSSGGCGGGEVAALEKEVAALEKEVAALEKEVAALEK,39.3%,29.9%

# More lines, now with the values behind:
Binder,"EC50 of cytolysis at 18 hours (CTL assay, Pan-T-cells and MOLM-13, E:T = 5:1) (CD3 on T-cells)","R: ratio of 18 hour EC50 to DART-A-WT (CTL assay, Pan-T-cells and MOLM-13, E:T = 5:1) (CD3 on T-cells)","R: ratio of 42 hour EC50 to DART-A-WT (CTL assay, Pan-T-cells and MOLM-13, E:T = 5:1) (CD3 on T-cells)",Kd [1],R (KD ratio to DART-A-WT) [1],R (ka ratio to DART-A-WT) [1],R (kd ratio to DART-A-WT) [1],koff [1],kon [1],"EC50 of cytolysis at 42 hours (CTL assay, Pan-T-cells and MOLM-13, E:T = 5:1) (CD3 on T-cells)","max % CytoTox at 18 hours (CTL assay, Pan-T-cells and MOLM-13, E:T = 5:1) (CD3 on T-cells)","max % CytoTox at 42 hours (CTL assay, Pan-T-cells and MOLM-13, E:T = 5:1) (CD3 on T-cells)"
DART-A-M5 (bispecific antibody) chain 1: DFVMTQSPDSLAVSLGERVTMSCKSSQSLLNSGNQKNYLTWYQQKPGQPPKLLIYWASTRESGVPDRFSGSGSGTDFTLTISSLQAEDVAVYYCQNDYSYPYTFGQGTKLEIKGGGSGGGGEVQLVESGGGLVQPGGSLRLSCAASGFTFSTYAMNWVRQAPGKGLEWVGRIRSKYNNYATYYADSVKDRFTISRDDSKNSLYLQMNSLKTEDTAVYYCVRHGNFGNSGVSWFAYWGQGTLVTVSSGGCGGGKVAALKEKVAALKEKVAALKEKVAALKE chain 2: QAVVTQEPSLTVSPGGTVTLTCRSSTGAVTTSNYANWVQQKPGQAPRGLIGGTNKRAPWTPARFSGSLLGGKAALTITGAQAEDEADYYCALWYSNLWVFGGGTKLTVLGGGGSGGGGEVQLVQSGAELKKPGASVKVSCKASGYTFTDYYMKWVRQAPGQGLEWIGDIIPSNGATFYNQKFKGRVTITVDKSTSTAYMELSSLRSEDTAVYYCARSHLLRASWFAYWGQGTLVTVSSGGCGGGEVAALEKEVAALEKEVAALEKEVAALEK,0.225 ng/mL,2.9,3.8,21.4 nM,2.6,2.6,6.8,0.028 s⁻¹,1.31e+06 M⁻¹ s⁻¹,0.011 ng/mL,40.8%,28.4%
DART-A-M16 (bispecific antibody) chain 1: DFVMTQSPDSLAVSLGERVTMSCKSSQSLLNSGNQKNYLTWYQQKPGQPPKLLIYWASTRESGVPDRFSGSGSGTDFTLTISSLQAEDVAVYYCQNDYSYPYTFGQGTKLEIKGGGSGGGGEVQLVESGGGLVQPGGSLRLSCAASGFTFSTDAMNWVRQAPGKGLEWVGRIRSKYNNYATYYADSVKDRFTISRDDSKNSLYLQMNSLKTEDTAVYYCVRHGNFGNSYVSWFAYWGQGTLVTVSSGGCGGGKVAALKEKVAALKEKVAALKEKVAALKE chain 2: QAVVTQEPSLTVSPGGTVTLTCRSSTGAVTTSNYANWVQQKPGQAPRGLIGGTNKRAPWTPARFSGSLLGGKAALTITGAQAEDEADYYCALWYSNLWVFGGGTKLTVLGGGGSGGGGEVQLVQSGAELKKPGASVKVSCKASGYTFTDYYMKWVRQAPGQGLEWIGDIIPSNGATFYNQKFKGRVTITVDKSTSTAYMELSSLRSEDTAVYYCARSHLLRASWFAYWGQGTLVTVSSGGCGGGEVAALEKEVAALEKEVAALEKEVAALEK,–,–,–,301 nM,37,0.7,25,0.104 s⁻¹,347000 M⁻¹ s⁻¹,–,–,–
DART-A-M20 (bispecific antibody) chain 1: DFVMTQSPDSLAVSLGERVTMSCKSSQSLLNSGNQKNYLTWYQQKPGQPPKLLIYWASTRESGVPDRFSGSGSGTDFTLTISSLQAEDVAVYYCQNDYSYPYTFGQGTKLEIKGGGSGGGGEVQLVESGGGLVQPGGSLRLSCAASGFTFSTYAMNWVRQAPGKGLEWVGRIRSKYNNYATYYADSVKDRFTISRDDSKNSLYLQMNSLKTEDTAVYYCVRHKNFGNSGVSWFAYWGQGTLVTVSSGGCGGGKVAALKEKVAALKEKVAALKEKVAALKE chain 2: QAVVTQEPSLTVSPGGTVTLTCRSSTGAVTTSNYANWVQQKPGQAPRGLIGGTNKRAPWTPARFSGSLLGGKAALTITGAQAEDEADYYCALWYSNLWVFGGGTKLTVLGGGGSGGGGEVQLVQSGAELKKPGASVKVSCKASGYTFTDYYMKWVRQAPGQGLEWIGDIIPSNGATFYNQKFKGRVTITVDKSTSTAYMELSSLRSEDTAVYYCARSHLLRASWFAYWGQGTLVTVSSGGCGGGEVAALEKEVAALEKEVAALEKEVAALEK,0.259 ng/mL,3.3,13.5,18.9 nM,2.3,7.7,18,0.0732 s⁻¹,3.87e+06 M⁻¹ s⁻¹,0.038 ng/mL,37.5%,30.9%
